T1: LPHN2 Lec-Olf domains (F26-P394) (UniProt O95490 26-394)
T1 construct: LPHN2 (ADGRL2) lectin and olfactomedin-like domains, residues F26-P394; Both Fc-tagged and tag-free forms were made; source: Expi293F, purified (protein A resin; tag-free form by on-resin thrombin digestion; Superdex 200)
T1 sequence (looked up): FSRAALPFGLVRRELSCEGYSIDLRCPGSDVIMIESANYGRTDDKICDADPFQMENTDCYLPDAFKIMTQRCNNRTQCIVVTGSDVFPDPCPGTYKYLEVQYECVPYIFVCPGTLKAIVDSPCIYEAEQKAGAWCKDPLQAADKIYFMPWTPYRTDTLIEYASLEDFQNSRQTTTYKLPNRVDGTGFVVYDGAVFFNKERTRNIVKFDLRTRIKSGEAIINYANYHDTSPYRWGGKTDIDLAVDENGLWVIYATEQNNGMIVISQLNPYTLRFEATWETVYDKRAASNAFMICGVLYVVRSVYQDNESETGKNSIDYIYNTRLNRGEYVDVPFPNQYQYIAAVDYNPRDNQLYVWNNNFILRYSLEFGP

B1: Leucine-rich alpha-2-glycoprotein 1 (LRG1), recombinant tag-free human LRG1 (ligand, UniProt P02750 36-347, looked up)
chain: VTLSPKDCQVFRSDHGSSISCQPPAEIPGYLPADTVHLAVEFFNLTHLPANLLQGASKLQELHLSSNGLESLSPEFLRPVPQLRVLDLTRNALTGLPPGLFQASATLDTLVLKENQLEVLEVSWLHGLKALGHLDLSGNRLRKLPPGLLANFTLLRTLDLGENQLETLPPDLLRGPLQLERLHLEGNKLQVLGKDLLLPQPDLRYLFLNGNKLARVAAGAFQGLRQLDMLDLSNNSLASVPEGLWASLGQPNWDMRDGFDISGNPWICDQNLSDLYRWLQAQKDKMFSQNDTRCAGPEAVKGQTLLAVAKSQ
notes: human LRG1, residues V36-Q347; In the TriCEPS capture LRG1 was coupled to the TriCEPS reagent; Residues of the thrombin site may remain after cleavage; also called recombinant LRG1; soluble LRG1; not shown: Fc (human IgG), C-terminal, cleaved

Experiments:
[1] = biological target: B1; test: solid-phase binding assay; LRG1 and recombinant extracellular domains of LPHN2 (and Lec/Olf of LPHN1, LPHN3); who was immobilised and conditions not told in the text shown; settings: both partners purified
[2] = biological target: T1, LPHN2 Lec-Olf domains (F26-P394); test: as above; settings: both partners purified

Row | Binder | Kd [1] [nM] | Kd [2] [nM]
1 | LPHN2 Olf domain (V135-P394) (domain or fragment, UniProt O95490 135-394, looked up, LPHN2 (ADGRL2) olfactomedin-like domain, residues V135-P394; Both Fc-tagged and tag-free forms were made; also called olfactomedin-like domain; source: Expi293F, purified (protein A resin; tag-free form by on-resin thrombin digestion; Superdex 200)) VCPGTLKAIVDSPCIYEAEQKAGAWCKDPLQAADKIYFMPWTPYRTDTLIEYASLEDFQNSRQTTTYKLPNRVDGTGFVVYDGAVFFNKERTRNIVKFDLRTRIKSGEAIINYANYHDTSPYRWGGKTDIDLAVDENGLWVIYATEQNNGMIVISQLNPYTLRFEATWETVYDKRAASNAFMICGVLYVVRSVYQDNESETGKNSIDYIYNTRLNRGEYVDVPFPNQYQYIAAVDYNPRDNQLYVWNNNFILRYSLEFGP | 920 | 
2 | B1 |  | 890
